From the supplement of paper PMC9112550, “Optimization of the antimicrobial peptide Bac7 by deep mutational scanning” (BMC Biology, 2022)

System: Escherichia coli TOP10
Test: shrunken log2 fold change of peptide-encoding DNA abundance (4.5 h post-induction vs induction); higher = less antimicrobial activity (less host growth inhibition)
Conditions: time post-induction: 4.5 h; library: site-saturation at positions 5, 18, 19, 20
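Further: peptides expressed intracellularly from a pBAD plasmid library in pooled LB shake-flask culture, induced with 0.3% L-arabinose, DNA abundance read by NGS, three biological replicates, DESeq2 with apeglm shrinkage.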

| Sequence | shrunken log2 fold change |
| --- | --- |
| RRIRRRPPRLPRPRPRPFGQPRP | -0.336 |
| RRIRMRPPRLPRPRPRPPIPPRP | 0.556 |
| RRIRTRPPRLPRPRPRPIVMPRP | -0.114 |
| RRIRHRPPRLPRPRPRPHWSPRP | -0.205 |
| RRIRNRPPRLPRPRPRPLEQPRP | -0.166 |
| RRIRSRPPRLPRPRPRPSNHPRP | -0.503 |
| RRIRSRPPRLPRPRPRPHKYPRP | -0.377 |
| RRIRKRPPRLPRPRPRPGVAPRP | 0.892 |
| RRIRHRPPRLPRPRPRPHRHPRP | -0.2 |
| RRIRIRPPRLPRPRPRPWDYPRP | -0.00975 |
| RRIRDRPPRLPRPRPRPKKAPRP | 0.0426 |
| RRIRNRPPRLPRPRPRPKLDPRP | 0.00863 |
| RRIRTRPPRLPRPRPRPFHHPRP | -0.775 |
| RRIRQRPPRLPRPRPRPEMPPRP | 0.188 |
| RRIRWRPPRLPRPRPRPFLHPRP | -0.772 |
| RRIRNRPPRLPRPRPRPWCLPRP | -0.472 |
| RRIRYRPPRLPRPRPRPSEGPRP | 0.0169 |
| RRIRCRPPRLPRPRPRPLWCPRP | -0.208 |
| RRIRARPPRLPRPRPRPFDFPRP | 0.00925 |
| RRIRTRPPRLPRPRPRPTPIPRP | 0.139 |

| Sequence | shrunken log2 fold change |
| --- | --- |
| RRIRIRPPRLPRPRPRPQVYPRP | 0.0822 |
| RRIRRRPPRLPRPRPRPVYRPRP | -0.235 |
| RRIRTRPPRLPRPRPRPVQYPRP | -0.246 |
| RRIRKRPPRLPRPRPRPCMIPRP | 0.0302 |
| RRIRCRPPRLPRPRPRPMYCPRP | -1.66 |
| RRIRDRPPRLPRPRPRPKHYPRP | -0.491 |
| RRIRHRPPRLPRPRPRPASWPRP | 0.305 |
| RRIRQRPPRLPRPRPRPWNCPRP | -0.0444 |
| RRIRSRPPRLPRPRPRPKFWPRP | 0.759 |
| RRIRSRPPRLPRPRPRPKYWPRP | -0.166 |
| RRIRIRPPRLPRPRPRPTYTPRP | -0.405 |
| RRIRIRPPRLPRPRPRPEQRPRP | -0.0838 |
| RRIRFRPPRLPRPRPRPPEHPRP | 0.682 |
| RRIRIRPPRLPRPRPRPETKPRP | 0.0233 |
| RRIRFRPPRLPRPRPRPEEDPRP | -0.185 |
| RRIRIRPPRLPRPRPRPPHWPRP | 0.0943 |
| RRIRWRPPRLPRPRPRPMKWPRP | 0.0452 |
| RRIRMRPPRLPRPRPRPMVAPRP | 0.12 |
| RRIRQRPPRLPRPRPRPSYTPRP | -1.34 |
| RRIRTRPPRLPRPRPRPPKEPRP | -0.000639 |

| Sequence | shrunken log2 fold change |
| --- | --- |
| RRIRQRPPRLPRPRPRPEDFPRP | -0.0175 |
| RRIRCRPPRLPRPRPRPHTQPRP | -0.55 |
| RRIRMRPPRLPRPRPRPHENPRP | 0.218 |
| RRIRHRPPRLPRPRPRPVFLPRP | -0.582 |
| RRIRGRPPRLPRPRPRPHTDPRP | 0.103 |
| RRIRPRPPRLPRPRPRPSSNPRP | -0.388 |
| RRIRKRPPRLPRPRPRPKMRPRP | 0.56 |
| RRIRPRPPRLPRPRPRPCHIPRP | -0.821 |
| RRIRDRPPRLPRPRPRPDWKPRP | 0.0755 |
| RRIRSRPPRLPRPRPRPFRVPRP | 0.166 |
| RRIRARPPRLPRPRPRPCDPPRP | -0.106 |
| RRIRSRPPRLPRPRPRPLRKPRP | 0.383 |
| RRIRKRPPRLPRPRPRPGRCPRP | 0.586 |
| RRIRGRPPRLPRPRPRPRMLPRP | 0.356 |
| RRIRGRPPRLPRPRPRPAKIPRP | 0.226 |
| RRIRPRPPRLPRPRPRPFATPRP | 0.0676 |
| RRIRMRPPRLPRPRPRPDYRPRP | -0.146 |
| RRIRSRPPRLPRPRPRPNNAPRP | -0.38 |
| RRIRSRPPRLPRPRPRPPFNPRP | -0.298 |
| RRIRKRPPRLPRPRPRPEHTPRP | -0.0305 |
